Biological target: 13-strain panel of SARS-CoV-2 variant lineages (RBDs)
Assay: SPR, Fab on captured His-AviTag RBD, single-cycle kinetics

B1: S2V29-v37.2 Fab (Fab, V domains shown)
VH: EVQLVESGGSVVQPGRALRLSCAASGITFSSFGMYWVRQAPGKGLEWLGYIAYDGSDTYYADSVKGRFTISRDNSKNTLYLQMNSLRIEDTAVYYCAKDYYPLLSYYYGLDVWGQGTTVTVSS
VL: QSVLTQPRSVSGSPGQSVTISCTGTSSDVGAYNYVSWYQQHPGKAPKFMIYDVDQRPSGVPDRFSGSKSGNTASLIISGLQAEDEADYYCSSYAGSYIWVFGGGTQLTVL
With B1 the Kd was 0.05 to 5 nM and the median KD was 0.26 nM.

From patent publication US20260274928A1
